In patent publication US20210063414A1, “METHODS FOR PREVENTING AND/OR TREATING BONE LOSS CONDITIONS BY MODULATING IRISIN” (Dana-Farber Cancer Institute, Inc., priority 2018, published 2021):

Biological target: T1, MLO-Y4 cell surface proteins (Mus musculus, UniProt P70388)
T1 construct: endogenous in cells; host or cells: MLO-Y4
T1 sequence (P70388 1-1312): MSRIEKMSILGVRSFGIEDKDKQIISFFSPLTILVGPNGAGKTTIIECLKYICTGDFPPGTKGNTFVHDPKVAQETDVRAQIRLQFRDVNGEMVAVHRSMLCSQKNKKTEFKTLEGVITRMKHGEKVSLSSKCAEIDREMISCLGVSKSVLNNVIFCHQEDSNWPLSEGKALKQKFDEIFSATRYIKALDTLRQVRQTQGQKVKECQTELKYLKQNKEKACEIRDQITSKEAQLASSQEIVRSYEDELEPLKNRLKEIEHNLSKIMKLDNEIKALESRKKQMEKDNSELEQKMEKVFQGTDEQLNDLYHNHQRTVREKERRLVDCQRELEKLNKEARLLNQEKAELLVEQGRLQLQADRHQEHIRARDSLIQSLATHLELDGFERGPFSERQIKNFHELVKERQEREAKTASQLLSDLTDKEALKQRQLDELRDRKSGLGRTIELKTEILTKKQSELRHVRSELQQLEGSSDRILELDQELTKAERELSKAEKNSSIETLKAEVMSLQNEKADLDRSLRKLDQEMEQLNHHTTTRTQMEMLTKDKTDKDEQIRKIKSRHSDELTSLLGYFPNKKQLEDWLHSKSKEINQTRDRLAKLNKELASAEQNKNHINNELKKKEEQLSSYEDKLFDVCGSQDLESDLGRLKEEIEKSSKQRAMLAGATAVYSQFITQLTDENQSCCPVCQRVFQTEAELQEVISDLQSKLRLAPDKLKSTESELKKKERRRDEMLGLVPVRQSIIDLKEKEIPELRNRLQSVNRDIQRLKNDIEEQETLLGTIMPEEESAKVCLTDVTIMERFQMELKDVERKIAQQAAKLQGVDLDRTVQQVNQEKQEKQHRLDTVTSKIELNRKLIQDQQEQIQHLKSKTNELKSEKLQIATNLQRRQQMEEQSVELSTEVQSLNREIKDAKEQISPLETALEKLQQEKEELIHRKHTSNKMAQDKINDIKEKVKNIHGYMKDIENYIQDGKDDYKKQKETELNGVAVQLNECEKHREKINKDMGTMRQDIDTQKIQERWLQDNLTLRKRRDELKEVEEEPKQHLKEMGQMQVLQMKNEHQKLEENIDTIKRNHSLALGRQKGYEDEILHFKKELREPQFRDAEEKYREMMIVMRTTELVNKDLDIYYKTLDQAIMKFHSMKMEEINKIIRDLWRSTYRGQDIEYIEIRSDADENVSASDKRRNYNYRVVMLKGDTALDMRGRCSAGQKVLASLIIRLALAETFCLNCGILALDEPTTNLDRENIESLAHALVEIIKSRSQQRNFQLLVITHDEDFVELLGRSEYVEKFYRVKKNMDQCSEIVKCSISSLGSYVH
Test: Crosslinking/co-immunoprecipitation/mass spectrometry (TMT quantitative proteomics) to identify irisin receptors
Assay type: binding
Settings: co-precipitated protein Rad50 (RAD50_MOUSE)
In short: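 Relative protein abundance came from 6-plex TMT MS3 quantitation on an Orbitrap Fusion Lumos, after in-gel trypsin digestion of Coomassie-stained SDS-PAGE lanes. Input was a Ni-NTA pulldown (250 mM imidazole elution) of lysates from murine MLO-Y4 cells. These cells were treated on ice with His-tagged irisin or adipsin (10 nM, 20 min) in serum-free medium, then crosslinked with 1.5 mM DTSSP for 30 min.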

B1: irisin: secreted cleaved form of FNDC5; recombinant human/mouse irisin with C-terminal his tag produced in HEK293 cells (protein)
chain: DSPSAPVNVTVRHLKANSAVVSWDVLEDEVVIGFAISQQKKDVRMLRFIQEVNTTTRSCALWDLEEDTEYIVHVQAISIQGQSPASEPVLFKTPREAEKMASKNKDEVTMKE
modifications: left off: small tags and cut ends
notes: secreted cleaved form of FNDC5; recombinant human/mouse irisin with C-terminal his tag produced in HEK293 cells
Question: With B1 as the molecule, how does the TMT signal-to-noise ratio read?
Answer: The TMT signal-to-noise ratio was 10.8209.

Question: What about the “irisin/adipsin TMT signal-to-noise ratio” value of the same molecule?
Answer: The value was 0.026.
